PMC2100146, “The Inhibition of Polo Kinase by Matrimony Maintains G2 Arrest in the Meiotic Cell Cycle” (PLoS Biology, 2007)

Target: T1, C-terminally 3x FLAG-tagged Mtrm (Drosophila melanogaster, UniProt Q23973 1-217)
T1 construct: Matrimony (Mtrm), Drosophila melanogaster, 217 amino acids; Phosphorylation detected by MS on T40, S48, S52, S124 and S137; also called Mtrm-FLAG(3x); mtrm-Flag(3x); source: UASP-mtrm-Flag(3x) expressed in ovaries under the nanos-GAL4 driver in a wild-type background, in ovary extract; not shown: 3x FLAG, C-terminal, kept
T1 sequence (looked up): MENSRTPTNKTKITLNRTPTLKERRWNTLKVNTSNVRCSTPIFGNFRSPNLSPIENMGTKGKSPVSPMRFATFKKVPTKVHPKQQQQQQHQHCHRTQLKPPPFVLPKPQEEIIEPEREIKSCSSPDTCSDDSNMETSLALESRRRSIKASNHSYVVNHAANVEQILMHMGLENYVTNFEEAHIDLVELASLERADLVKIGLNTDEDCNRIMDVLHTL
Assay: affinity purification with mass spectrometry; anti-FLAG beads, ovary extracts expressing Mtrm-3x FLAG, eluted with 3x FLAG peptide; MudPIT; three independent purifications against five control FLAG immunoprecipitations from w1118; ratio of NSAF values
Details: partners not purified

- stoichiometry N: 0.96 ± 0.11
B1: Polo kinase (Polo) (enzyme, UniProt P52304 1-576, looked up)
chain: MAAKPEDKSTDIPDRLVDINQRKTYKRMRFFGKGGFAKCYEIIDVETDDVFAGKIVSKKLMIKHNQKEKTAQEITIHRSLNHPNIVKFHNYFEDSQNIYIVLELCKKRSMMELHKRRKSITEFECRYYIYQIIQGVKYLHDNRIIHRDLKLGNLFLNDLLHVKIGDFGLATRIEYEGERKKTLCGTPNYIAPEILTKKGHSFEVDIWSIGCVMYTLLVGQPPFETKTLKDTYSKIKKCEYRVPSYLRKPAADMVIAMLQPNPESRPAIGQLLNFEFLKGSKVPMFLPSSCLTMAPRIGSNDTIEDSMHRKPLMEMNGIRPDDTRLESTFLKANLHDAITASAQVCRHSEDYRSDIESLYQQLTNLINGKPRILQGNLGDENTDPAAQPLFWISKWVDYSDKYGFGYQLCDEGIGVMFNDTTKLILLPNQINVHFIDKDGKETYMTTTDYCKSLDKKMKLLSYFKRYMIEHLVKAGANNVNIESDQISRMPHLHSWFRTTCAVVMHLTNGSVQLNFSDHMKLILCPRMSAITYMDQEKNFRTYRFSTIVENGVSKDLYQKIRYAQEKLRKMLEKMFT
notes: Polo kinase, Drosophila melanogaster; endogenous protein of ovaries; Polo recovered with Mtrm-3xFLAG was found phosphorylated on T182 at over 80% in all three purifications; source: endogenous, Drosophila ovary extract
